Laboratory results published in PMC4669440.

What was measured:
Conditions in all cases: glycan lost; control: WT mice
[1] = TRAP staining, 6-month-old mice
[2] = X-ray radiography of long bones
[3] = immunohistochemistry, anti-DMP1-N 9B6.3, cortical bone
[4] = H&E histology of long bone
[5] = three-point bending of femur and tibia

B1: Dentin matrix protein 1 (DMP1): S89G (protein)
parent chain: MKTVILLVFLWGLSCALPVARYHNTESESSEERTGDLAGSPPPPTNSESSEESQASPEGQANSDHTDSSESGEELGYDRGQYRPAGGLSKSTGTGADKEDDEDDSGDDTFGDEDNDLGPEEGQWGGPSKLDSDEDSTDTTQSSEDSTSQENSAQDTPSDSKDHDSEDEADSRPEAGDSTQDSESEEQRVGGGSEGESSHGDGSEFDDEGMQSDDPESTRSDRGHARMSSAGIRSEESKGDHEPTSTQDSDDSQSVEFSSRKSFRRSHVSEEDYRGELTDSNSRETQSDSTEDTASKEESRSESQEDTAESQSQEDSPEGQDPSSESSEEAGEPSQESSSESQEGVTSESRGDNPDNTSQAGDQEDSESSEEDSLNTFSSSESQSTEEQADSESNESLSLSEESQESAQDGDSSSQEGLQSQSASTESRSQESQSEQDSRSEEDSDSQDSSRSKEESNSTGSASSSEEDIRPKNMEADSRKLIVDAYHNKPIGDQDDNDCQDGY
decreases: other: osteoclast number in bone [1] | other: radiographic bone density [2] | expression_or_secretion [3] | other: articular cartilage thickness [4] | other: bone mechanical strength [5]
